Measurements as given in US20030190687A1 (UAB RESEARCH FOUNDATION, published 2003).

Target: T1, human DR5 on the cell surface (Cos-7 cells transfected with full-length human DR5 cDNA); human cells that … (human, UniProt O14763 56-440)
T1 construct: whole, on cells; also called cell surface DR5; full-length DR5
Test: radioisotope labeled TRA-8 on a breast cancer line in vitro; reference soluble TRAIL

B1: anti-human DR5 monoclonal antibody TRA-8 (mouse-mouse hybridoma TRA-8, ATCC PTA-1428) (antibody, mouse IgG1, kappa, V domains shown)
VH: EVMLVESGGGLVKPGGSLKLSCAASGFTFSSYVMSWVRQTPEKRLEWVATISSGGSYTYYPDSVKGRFTISRDNAKNTLYLQMSSLRSEDTAMYYCARRGDSMITTDYWGQGTTLTVSS
VL: DIVMTQSHKFMSTSVGDRVSITCKASQDVGTAVAWYQQKPGQSPKLLIYWASTRHTGVPDRFTGSGSGTDFTLTISNVQSEDLADYFCQQYSSYRTFGGGTKLEIKR
notes: also called monoclonal anti-DR5 antibody (clone: TRA-8); TRA-8 antibody
- fold higher binding activity than soluble TRAIL: 50 fold
